Experimental data taken from PMC10813304.

Columns and labels:
[1] = target: ΔLTRIN, truncated C-terminal LTRIN (lymphotoxin β receptor inhibitor), residues 86-210 (Aedes aegypti); experiment: dynamic and static light scattering; DynaPro Nanostar; ΔLTRIN at 1 mg/mL to 20 mg/mL; also with Ca2+ or EGTA without effect
[2] = target: ΔLTRIN, truncated C-terminal LTRIN (lymphotoxin β receptor inhibitor), residues 86-210 (Aedes aegypti); experiment: SEC; Superdex 75 after Ni-NTA and ion exchange; elution against a standard curve (between 44 kDa and 17 kDa); also with Ca2+ or EGTA/EDTA without effect
[3] = target: ΔLTRIN, truncated C-terminal LTRIN (lymphotoxin β receptor inhibitor), residues 86-210 (Aedes aegypti); experiment: AUC; sedimentation velocity, 0.5 mg/mL, 25 mM Tris HCl, 50 mM NaCl pH 7.5, 40,000 rpm, 20 °C, continuous c(s) distribution
[4] = target: C133Q ΔLTRIN (Aedes aegypti); experiment: dynamic and static light scattering; DynaPro Nanostar; ΔLTRIN at 1 mg/mL to 20 mg/mL; also with Ca2+ or EGTA without effect
[5] = target: C133Q ΔLTRIN (Aedes aegypti); experiment: SEC; Superdex 75 after Ni-NTA and ion exchange; elution against a standard curve (between 44 kDa and 17 kDa); also with Ca2+ or EGTA/EDTA without effect

| stoichiometry N [4] | stoichiometry N [5] | Substance | stoichiometry N [1] | stoichiometry N [2] | stoichiometry N [3] |
| --- | --- | --- | --- | --- | --- |
|  |  | ΔLTRIN, truncated C-terminal LTRIN (lymphotoxin β receptor inhibitor), residues 86-210 (domain or fragment) | 2 | 2 | 2 |
| 2 | 2 | C133Q ΔLTRIN (domain or fragment) |  |  |  |
